Laboratory results taken from patent US11325966.

Assays:
Assay in all cases: cell-based or functional assay
[1] = molecular target: HIV-1 Env of pseudovirus ZM249M.PL1 (HIV-1)
[2] = molecular target: HIV-1 Env of pseudovirus 6952.v1.c20 (HIV-1)
[3] = molecular target: HIV-1 Env of pseudovirus THRO4156.18 (HIV-1)
[4] = molecular target: HIV-1 Env of pseudovirus 1006_11_C3_1601 (HIV-1)
[5] = molecular target: HIV-1 Env of pseudovirus Q769.d22 (HIV-1)
[6] = molecular target: HIV-1 Env of pseudovirus BF1266.431a (HIV-1)
[7] = molecular target: HIV-1 Env of pseudovirus ZM109F.PB4 (HIV-1)
[8] = molecular target: HIV-1 Env of pseudovirus CNE20 (HIV-1)
[9] = molecular target: HIV-1 Env of pseudovirus AC10.0.29 (HIV-1)
[10] = molecular target: HIV-1 Env of pseudovirus 3016.v5.c45 (HIV-1)
[11] = molecular target: HIV-1 Env of pseudovirus HIV-0013095-2.11 (HIV-1)
[12] = molecular target: HIV-1 Env of pseudovirus X1632_S2_B10 (HIV-1)
[13] = molecular target: HIV-1 Env of pseudovirus X2088_c9 (HIV-1)
[14] = molecular target: HIV-1 Env of pseudovirus Ce1086_B2 (HIV-1)
[15] = molecular target: HIV-1 Env of pseudovirus CNE17 (HIV-1)
[16] = molecular target: HIV-1 Env of pseudovirus BJOX009000.02.4 (HIV-1)
[17] = molecular target: HIV-1 Env of pseudovirus ZM135M.PE10a (HIV-1)
[18] = molecular target: HIV-1 Env of pseudovirus BJOX028000.10.3 (HIV-1)
[19] = molecular target: HIV-1 Env of pseudovirus X1193_c1 (HIV-1)
[20] = molecular target: HIV-1 Env of pseudovirus ZM247v1(Rev-) (HIV-1)
[21] = molecular target: HIV-1 Env of pseudovirus CNE19 (HIV-1)
[22] = molecular target: HIV-1 Env of pseudovirus ZM197M.PB7 (HIV-1)
[23] = molecular target: HIV-1 Env of pseudovirus Q23.17 (HIV-1)
[24] = molecular target: HIV-1 Env of pseudovirus 6244_13_B5_4576 (HIV-1)
[25] = molecular target: HIV-1 Env of pseudovirus P0402_c2_11 (HIV-1)
[26] = molecular target: HIV-1 Env of pseudovirus 246F C1G (HIV-1)
[27] = molecular target: HIV-1 Env of pseudovirus Ce1176_A3 (HIV-1)
[28] = molecular target: HIV-1 Env of pseudovirus 1054_07_TC4_1499 (HIV-1)
[29] = molecular target: HIV-1 Env of pseudovirus 7030102001E5(Rev-) (HIV-1)
[30] = molecular target: HIV-1 Env of pseudovirus 3415.v1.c1 (HIV-1)
[31] = molecular target: HIV-1 Env of pseudovirus BJOX025000.01.1 (HIV-1)
[32] = molecular target: HIV-1 Env of pseudovirus 235-47 (HIV-1)
[33] = molecular target: HIV-1 Env of pseudovirus Du156.12 (HIV-1)
[34] = molecular target: HIV-1 Env of pseudovirus WEAU_d15_410_787 (HIV-1)
[35] = molecular target: HIV-1 Env of pseudovirus 6480.v4.c25 (HIV-1)
[36] = molecular target: HIV-1 Env of pseudovirus CNE5 (HIV-1)
[37] = molecular target: HIV-1 Env of pseudovirus 6540.v4.c1 (HIV-1)
[38] = molecular target: HIV-1 Env of pseudovirus 3365.v2.c2 (HIV-1)
[39] = molecular target: HIV-1 Env of pseudovirus CNE58 (HIV-1)

B1: 10-1074 (antibody, V domains shown)
VH: QVQLQESGPGLVKPSETLSVTCSVSGDSMNNYYWTWIRQSPGKGLEWIGYISDRESATYNPSLNSRVVISRDTSKNQLSLKLNSVTPADTAVYYCATARRGQRIYGVVSFGEFFYYYSMDVWGKGTTVTVSS
VL: SYVRPLSVALGETARISCGRQALGSRAVQWYQHRPGQAPILLIYNNQDRPSGIPERFSGTPDINFGTRATLTISGVEAGDEADYYCHMWDSRSGFSWSFGGATRLTVL
[1]
  IC50 in TZM-bl assay: > 10 µg/mL
  IC80 in TZM-bl assay: > 10 µg/mL
[2]
  IC50 in TZM-bl assay: 0.023 µg/mL
  IC80 in TZM-bl assay: 0.086 µg/mL
[3]
  IC50 in TZM-bl assay: > 10 µg/mL
  IC80 in TZM-bl assay: > 10 µg/mL
[4]
  IC50 in TZM-bl assay: 2 ng/mL
  IC80 in TZM-bl assay: 6 ng/mL
[5]
  IC50 in TZM-bl assay: > 10 µg/mL
  IC80 in TZM-bl assay: > 10 µg/mL
[6]
  IC50 in TZM-bl assay: > 10 µg/mL
  IC80 in TZM-bl assay: > 10 µg/mL
[7]
  IC50 in TZM-bl assay: > 10 µg/mL
  IC80 in TZM-bl assay: > 10 µg/mL
[8]
  IC50 in TZM-bl assay: 2 ng/mL
  IC80 in TZM-bl assay: 5 ng/mL
[9]
  IC50 in TZM-bl assay: 0.015 µg/mL
  IC80 in TZM-bl assay: 0.043 µg/mL
[10]
  IC50 in TZM-bl assay: > 10 µg/mL
  IC80 in TZM-bl assay: > 10 µg/mL
[11]
  IC50 in TZM-bl assay: > 10 µg/mL
  IC80 in TZM-bl assay: > 10 µg/mL
[12]
  IC50 in TZM-bl assay: > 10 µg/mL
  IC80 in TZM-bl assay: > 10 µg/mL
[13]
  IC50 in TZM-bl assay: 3 ng/mL
  IC80 in TZM-bl assay: 0.01 µg/mL
[14]
  IC50 in TZM-bl assay: > 10 µg/mL
  IC80 in TZM-bl assay: > 10 µg/mL
[15]
  IC50 in TZM-bl assay: 1.18 µg/mL
  IC80 in TZM-bl assay: 4.85 µg/mL
[16]
  IC50 in TZM-bl assay: > 10 µg/mL
  IC80 in TZM-bl assay: > 10 µg/mL
[17]
  IC50 in TZM-bl assay: 0.061 µg/mL
  IC80 in TZM-bl assay: 0.263 µg/mL
[18]
  IC50 in TZM-bl assay: > 10 µg/mL
  IC80 in TZM-bl assay: > 10 µg/mL
[19]
  IC50 in TZM-bl assay: 0.07 µg/mL
  IC80 in TZM-bl assay: 0.207 µg/mL
[20]
  IC50 in TZM-bl assay: 0.042 µg/mL
  IC80 in TZM-bl assay: 0.146 µg/mL
[21]
  IC50 in TZM-bl assay: 0.075 µg/mL
  IC80 in TZM-bl assay: > 10 µg/mL
[22]
  IC50 in TZM-bl assay: > 10 µg/mL
  IC80 in TZM-bl assay: > 10 µg/mL
[23]
  IC50 in TZM-bl assay: 5 ng/mL
  IC80 in TZM-bl assay: 0.015 µg/mL
[24]
  IC50 in TZM-bl assay: 0.091 µg/mL
  IC80 in TZM-bl assay: 0.38 µg/mL
[25]
  IC50 in TZM-bl assay: 8 ng/mL
  IC80 in TZM-bl assay: 0.024 µg/mL
[26]
  IC50 in TZM-bl assay: 0.035 µg/mL
  IC80 in TZM-bl assay: 0.119 µg/mL
[27]
  IC50 in TZM-bl assay: 0.022 µg/mL
  IC80 in TZM-bl assay: 0.07 µg/mL
[28]
  IC50 in TZM-bl assay: 0.048 µg/mL
  IC80 in TZM-bl assay: 0.222 µg/mL
[29]
  IC50 in TZM-bl assay: 9 ng/mL
  IC80 in TZM-bl assay: 0.019 µg/mL
[30]
  IC50 in TZM-bl assay: > 10 µg/mL
  IC80 in TZM-bl assay: > 10 µg/mL
[31]
  IC50 in TZM-bl assay: > 10 µg/mL
  IC80 in TZM-bl assay: > 10 µg/mL
[32]
  IC50 in TZM-bl assay: 0.058 µg/mL
  IC80 in TZM-bl assay: 0.224 µg/mL
[33]
  IC50 in TZM-bl assay: 0.01 µg/mL
  IC80 in TZM-bl assay: 0.036 µg/mL
[34]
  IC50 in TZM-bl assay: 0.031 µg/mL
  IC80 in TZM-bl assay: 0.112 µg/mL
[35]
  IC50 in TZM-bl assay: 6 ng/mL
  IC80 in TZM-bl assay: 0.023 µg/mL
[36]
  IC50 in TZM-bl assay: > 10 µg/mL
  IC80 in TZM-bl assay: > 10 µg/mL
[37]
  IC50 in TZM-bl assay: > 10 µg/mL
  IC80 in TZM-bl assay: > 10 µg/mL
[38]
  IC50 in TZM-bl assay: 0.057 µg/mL
  IC80 in TZM-bl assay: 0.2 µg/mL
[39]
  IC50 in TZM-bl assay: 0.165 µg/mL
  IC80 in TZM-bl assay: 0.476 µg/mL
